Columns and labels:
[1] = system: dPspCas13b-ADAR2DD(E488Q) (REPAIRv1) H133A,H1058A (Prevotella sp. P5-125 / Homo sapiens); assay: cell_activity
[2] = system: dPspCas13b-ADAR1DD H133A,H1058A (Prevotella sp. P5-125 / Homo sapiens); assay: cell_activity; conditions: on-target A-to-I RNA editing

For “Cluc W85X targeting guide ; Cluc W85X transcript (254 A>G site)”, the activity ([1]; 10 ng Cas13-ADAR transfected) was 80 % editing, the activity ([1]; 150 ng Cas13-ADAR transfected) was 83 % editing and the activity ([1]; on-target A-to-I RNA editing) was 71 % editing. It also gave an activity [2] of 29 % editing.

— patent publication US20210093667
